Test results taken from PMC11143768, “Integrin-linked kinase-frizzled 7 interaction maintains cancer stem cells to drive platinum resistance in ovarian cancer” (Journal of Experimental & Clinical Cancer Research : CR, 2024).

Molecular target: T1, recombinant human full length Fzd7 (human, UniProt O75084 33-574)
T1 construct: Frizzled 7 (Fzd7), human, recombinant full length; also called full-length recombinant Fzd7; source: recombinant
Assay: co-IP; recombinant human full length Fzd7 mixed in lysis buffer at 1:1 ratio with recombinant human full-length ILK, incubated overnight at 4 °C with anti-Fzd7 Ab; Western blot for ILK and Fzd7
Settings: both partners purified

B1: recombinant human full-length ILK (enzyme, UniProt Q13418 1-452, looked up)
chain: MDDIFTQCREGNAVAVRLWLDNTENDLNQGDDHGFSPLHWACREGRSAVVEMLIMRGARINVMNRGDDTPLHLAASHGHRDIVQKLLQYKADINAVNEHGNVPLHYACFWGQDQVAEDLVANGALVSICNKYGEMPVDKAKAPLRELLRERAEKMGQNLNRIPYKDTFWKGTTRTRPRNGTLNKHSGIDFKQLNFLTKLNENHSGELWKGRWQGNDIVVKVLKVRDWSTRKSRDFNEECPRLRIFSHPNVLPVLGACQSPPAPHPTLITHWMPYGSLYNVLHEGTNFVVDQSQAVKFALDMARGMAFLHTLEPLIPRHALNSRSVMIDEDMTARISMADVKFSFQCPGRMYAPAWVAPEALQKKPEDTNRRSADMWSFAVLLWELVTREVPFADLSNMEIGMKVALEGLRPTIPPGISPHVCKLMKICMNEDPAKRPKFDMIVPILEKMQDK
notes: Integrin-linked kinase (ILK), human, recombinant full length; also called full-length recombinant ILK; source: recombinant
binding result: binds
